Measurements taken from paper PMC6751199, “A synthetic metabolic network for physicochemical homeostasis” (Nature Communications, 2019).

How the values were obtained:
[1] = molecular target: T1, OpuA (ATP-driven glycine betaine transporter) (Lactococcus lactis, UniProt Q9RQ05); test: […]-glycine betaine uptake in OpuA/ArcD2 vesicles; type: biochemical; details: 100 mM KPi pH 7.0, 250 mM KCl, 30 °C; ATP regenerated inside from arginine; 18 µM glycine betaine; labelled compound
T1 construct: gene busAB; ABC transporter complex purified by Ni-Sepharose in DDM (tag not described here), expressed in L. lactis, co-reconstituted with ArcD2 in lipid vesicles
T1 sequence (Q9RQ05 1-573): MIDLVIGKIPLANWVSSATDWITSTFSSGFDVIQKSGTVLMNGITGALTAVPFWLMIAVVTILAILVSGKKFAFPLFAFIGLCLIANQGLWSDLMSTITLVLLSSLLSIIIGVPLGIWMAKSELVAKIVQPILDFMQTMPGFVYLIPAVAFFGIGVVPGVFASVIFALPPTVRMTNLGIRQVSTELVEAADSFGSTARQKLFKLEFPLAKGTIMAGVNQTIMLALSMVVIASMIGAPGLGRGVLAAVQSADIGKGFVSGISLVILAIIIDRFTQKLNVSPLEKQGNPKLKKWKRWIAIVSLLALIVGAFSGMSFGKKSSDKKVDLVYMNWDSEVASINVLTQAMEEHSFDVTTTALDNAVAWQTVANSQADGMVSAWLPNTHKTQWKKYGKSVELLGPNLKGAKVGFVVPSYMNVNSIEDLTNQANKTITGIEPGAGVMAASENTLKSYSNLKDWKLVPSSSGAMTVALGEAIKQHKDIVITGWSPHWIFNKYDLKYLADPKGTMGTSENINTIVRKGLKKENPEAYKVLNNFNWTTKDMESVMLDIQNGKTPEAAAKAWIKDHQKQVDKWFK
T1 sequence (Q9RQ06 1-407 partner): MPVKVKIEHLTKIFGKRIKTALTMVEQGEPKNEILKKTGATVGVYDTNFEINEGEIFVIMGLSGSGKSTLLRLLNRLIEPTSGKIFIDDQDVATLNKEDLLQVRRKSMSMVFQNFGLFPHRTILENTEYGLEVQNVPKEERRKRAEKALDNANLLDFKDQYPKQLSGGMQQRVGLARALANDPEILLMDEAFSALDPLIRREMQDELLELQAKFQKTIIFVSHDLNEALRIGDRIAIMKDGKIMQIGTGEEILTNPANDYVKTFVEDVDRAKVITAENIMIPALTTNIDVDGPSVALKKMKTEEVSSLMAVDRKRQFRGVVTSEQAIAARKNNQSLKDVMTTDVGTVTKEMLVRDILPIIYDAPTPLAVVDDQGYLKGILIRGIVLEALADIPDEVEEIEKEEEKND

[2] = molecular target: T2, ArcD2 (arginine/ornithine antiporter) (Lactococcus lactis, UniProt Q9CE19); test: […]-arginine uptake in ArcD2 proteoliposomes loaded with citrulline; type: biochemical; details: 50 mM KPi pH 7.0, 30 °C; counter-substrate 10 µM 14C-arginine outside; 1 or 10 mM citrulline inside; electrogenic
T2 construct: full length, cleavable C-terminal 10His tag (cleavage not described), expressed in L. lactis JP9000 (arcD1D2 deleted), purified in DDM, reconstituted in DOPE/DOPC/DOPG vesicles
T2 sequence (Q9CE19 1-497): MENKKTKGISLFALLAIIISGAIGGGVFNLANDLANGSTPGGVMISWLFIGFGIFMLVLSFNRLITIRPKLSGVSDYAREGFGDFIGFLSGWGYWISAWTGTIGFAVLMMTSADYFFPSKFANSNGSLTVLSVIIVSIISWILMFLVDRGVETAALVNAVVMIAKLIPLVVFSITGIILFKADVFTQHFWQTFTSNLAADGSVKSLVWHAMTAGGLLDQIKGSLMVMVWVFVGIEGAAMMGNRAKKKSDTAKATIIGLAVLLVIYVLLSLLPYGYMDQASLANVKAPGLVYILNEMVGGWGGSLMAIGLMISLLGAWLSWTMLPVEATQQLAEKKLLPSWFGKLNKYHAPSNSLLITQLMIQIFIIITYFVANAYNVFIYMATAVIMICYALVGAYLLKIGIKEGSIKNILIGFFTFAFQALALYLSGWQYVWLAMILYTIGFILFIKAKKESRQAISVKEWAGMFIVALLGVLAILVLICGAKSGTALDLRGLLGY

[3] = molecular target: T2, ArcD2 (arginine/ornithine antiporter); test: […]-arginine uptake in ArcD2 proteoliposomes; type: biochemical; details: 50 mM KPi pH 7.0, 30 °C; 10 µM arginine outside, counter-substrate L-ornithine inside; labelled compound
[4] = substrate: NC(=O)OP(=O)(O)O; test: ATP/ADP ratio by PercevalHR fluorescence, pH-corrected with pyranine; type: biochemical, Lactococcus lactis; details: 50 mM KPi pH 7.0, 5 mM MgSO4, 30 °C, excess ADP
[5] = substrate: Nc1ncnc2c1ncn2[C@@H]1O[C@H](COP(=O)(O)OP(=O)(O)O)[C@@H](O)[C@H]1O; test: as above; type: biochemical, Lactococcus lactis; details: 50 mM KPi pH 7.0, 5 mM MgSO4, 30 °C, excess carbamoyl-phosphate
purified protein [6] = substrate: N=C(N)NCCC[C@H](N)C(=O)O; test: purified protein; type: biochemical, Lactococcus lactis; details: 50 mM KPi pH 7.0, 30 °C, 0-480 µM L-arginine
purified protein [7] = substrate: NCCC[C@H](N)C(=O)O; test: purified protein; details: 50 mM KPi pH 7.0, 30 °C, excess carbamoyl-phosphate, back reaction (citrulline formation)
purified protein [8] = substrate: NC(=O)OP(=O)(O)O; test: purified protein; type: biochemical, Lactococcus lactis; details: 50 mM KPi pH 7.0, 30 °C, excess L-ornithine, back reaction (citrulline formation)

**Q.** How did the “14C-glycine betaine uptake in OpuA/ArcD2 vesicles” value [1] turn out when `C[N+](C)(C)CC(=O)[O-]` [glycine betaine] was run?
**A.** Its value is “OpuA is constitutively active and imports glycine betaine at the expense of ATP”.

**Q.** Which “14C-arginine uptake in ArcD2 proteoliposomes loaded with citrulline” value [2] does the source give for `NC(=O)NCCC[C@H](N)C(=O)O` [L-citrulline] here?
**A.** The value was “ArcD2 exchanges arginine for citrulline, albeit at a much lower rate”.

**Q.** For `N=C(N)NCCC[C@H](N)C(=O)O` [L-arginine], which “14C-arginine uptake in ArcD2 proteoliposomes” value [3] is on record?
**A.** Its value is “demonstrated exchange of arginine for ornithine”.

B1: ArcC1 (carbamate kinase) (Lactococcus lactis subsp. lactis Il1403) (protein)
chain: MVKRIVVALGGNAILSKDPSAKAQKEALEVTAEQLMPLIKDNDRQMVVTHGNGPQVGNLLLQQLGSDSEKNPAMPLDTVGAMTQGEIGFWTVQAFTRAMANNGLEHYPVISAVTQTLVDENDPAFKNASKPIGPFYTEEQLPEIKKQFPDWELMEDAGRGYRRVVPSPKPLEIIEAKAFGPILESGSLLIASGGGGIPVIKDGKGYQGVEAVIDKDFSAAKLAEMVGADELLILTSGGDVYLNYGKENQVHLETVKVSEMRKYVDEERFAKGSMGPKVEAAVSFVERTGKTATITSLDNVENFVKSGSGTRIVP
notes: full length, cleavable N-terminal 10His tag (cleavage not described), expressed from pNZarcC1 in L. lactis NZ9000, Ni-Sepharose and Superdex 200
**Q.** How did the Km [4] turn out when B1 was run?
**A.** Its Km is 700 µM.

**Q.** And the kcat [4]?
**A.** Its kcat is 420 s⁻¹.

**Q.** What about the Km [5] of the same molecule?
**A.** Its Km is 1000 µM.

**Q.** And the kcat [5]?
**A.** Its kcat is 310 s⁻¹.

B2: ArcA (arginine deiminase) (Lactococcus lactis subsp. lactis Il1403) (protein)
chain: MNNGINVNSEIGKLKSVLLHRPGAEVENITPDTMKQLLFDDIPYLKIAQKEHDFFAQTLRDNGAETVYIENLATEVFEKSSETKEEFLSHLLHEAGYRPGRTYDGLTEYLTSMSTKDMVEKIYAGVRKNELDIKRTALSDMAGSDAENYFYLNPLPNAYFTRDPQASMGVGMTINKMTFPARQPESLITEYVMANHPRFKDTPIWRDRNHTTRIEGGDELILNKTTVAIGVSERTSSKTIQNLAKELFANPLSTFDTVLAVEIPHNHAMMHLDTVFTMINHDQFTVFPGIMDGAGNINVFILRPGKDDEVEIEHLTDLKAALKKVLNLSELDLIECGAGDPIAAPREQWNDGSNTLAIAPGEIVTYDRNYVTVELLKEHGIKVHEILSSELGRGRGGARCMSQPLWREDL
notes: full length, cleavable N-terminal 6His tag (cleavage not described), expressed from pNZarcA in L. lactis NZ9000, Ni-Sepharose and Superdex 200
**Q.** How did the Km (purified protein [6]) turn out when B2 was run?
**A.** Its Km is 26.5 µM.

**Q.** And the kcat (purified protein [6])?
**A.** The kcat was 12 s⁻¹.

B3: ArcB (ornithine transcarbamoylase) (Lactococcus lactis subsp. lactis Il1403) (protein)
chain: MTSPLITKAEVNSVFQGRSLLAEKDFTPAEINYLVDFGLHLKALKQQNIPHHYLEGKNIALLFAKTSTRTRAAFTTAAIDLGAHPEYLGANDIQLGIKESTEDTARVLGSMFDAIERRGFSQKEVEDLAKYSGVPVWNGLTDDWHPTQMIADFMTVKENFGHLKGLTLVYVGDGRNNMANSLIVTGSMLGVNVHIVAPDSLHPTKEVMDIANKFAEKSGAKPLATSNIEEGVKGANIIYSDVWVSMGESNWEERVKLLTPYRITMDMLKMTGNADNGQLIFMHCLPAFHDTETEYGKEIKEKYGLTEMEVTDEVFRSKYARQFEEAENRMHSIKAIMAATLGNLFIPAVPEDFK
notes: full length, cleavable N-terminal 6His tag (cleavage not described), expressed from pNZarcB in L. lactis NZ9000, Ni-Sepharose and Superdex 200
**Q.** For B3, which Km (purified protein [7]) is on record?
**A.** The Km was 700 µM.

**Q.** What about the kcat (purified protein [7]) of the same molecule?
**A.** Its kcat is 2300 s⁻¹.

**Q.** And the Km (purified protein [8])?
**A.** The Km was 1900 µM.

**Q.** And the kcat (purified protein [8])?
**A.** Its kcat is 2900 s⁻¹.
